Results published in article PMC5948571, “Detection of Metallothionein in Javanese Medaka (Oryzias javanicus), Using a scFv-Immobilized Protein Chip” (Sensors (Basel, Switzerland), 2018).

Target: T1, BSA (Bos taurus, UniProt P02769)
T1 construct: BSA (serum albumin), used as negative control protein; also called control protein
Test: SPR; scFv-Cys3 (50 µg/mL) immobilised directly on a gold chip by thiol-gold, blocked with PEG-thiol; OjaMT (5-30 µg/mL) or BSA (30 µg/mL) flowed at 10 µL/min for 10 min, PBS wash; PBS, room temperature; portable MiCo SPR nano
Conditions: both partners purified

T1 sequence (P02769 25-607): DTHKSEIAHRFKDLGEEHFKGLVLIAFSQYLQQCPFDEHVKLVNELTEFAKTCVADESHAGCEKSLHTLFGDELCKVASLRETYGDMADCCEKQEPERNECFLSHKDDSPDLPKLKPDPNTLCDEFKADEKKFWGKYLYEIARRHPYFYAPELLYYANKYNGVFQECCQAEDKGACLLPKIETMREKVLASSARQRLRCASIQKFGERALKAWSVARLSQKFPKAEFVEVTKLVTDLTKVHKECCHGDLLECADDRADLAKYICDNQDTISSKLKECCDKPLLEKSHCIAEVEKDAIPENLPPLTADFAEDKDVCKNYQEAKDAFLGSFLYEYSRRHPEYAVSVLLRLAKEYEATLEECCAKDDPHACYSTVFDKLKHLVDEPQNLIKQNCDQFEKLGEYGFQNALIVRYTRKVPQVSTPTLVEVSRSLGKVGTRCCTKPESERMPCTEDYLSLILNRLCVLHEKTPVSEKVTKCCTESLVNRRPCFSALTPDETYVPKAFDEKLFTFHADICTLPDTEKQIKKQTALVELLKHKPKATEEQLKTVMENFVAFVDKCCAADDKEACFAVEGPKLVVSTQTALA

- binding result: no binding (tested: 30 μg/mL)
B1: Cys3-tagged anti-OjaMT single-chain fragment of variable region (scFv-Cys3) (scFv, V domains shown)
VH: EVQLQQSGAELVKPGASVKLSCKASGYTFTSYSMHWVKQRPGQGLEWIGEINPSNGRTNYNEKFKSKATLTVDKSSSTAYMQVSSLTSEDSAVYYCARRSSYWYFDVWGAGTTVTVSS
VL: DVLMTQTPASQSASLGESVTITCLASQTIGTWLAWYQQKPGKSPQLLIYAATSLADGVPSRFSGSGSGTKFSFKISSLQAEDFVSYYCQQLCNPPYTFGGRHQAGNQ
notes: VH of the anti-OjaMT hybridoma, 119 amino acids; (GGGGS)3 GS-linker, 15 amino acids; VL of the anti-OjaMT hybridoma, 107 amino acids; VH-linker-VL cloned NdeI/HindIII in pET-28a(+) (pJDH033); a GS-linker-Cys3 fragment was put into the HindIII/XhoI sites (pJDH043); also called anti-OjaMT scFv; recombinant scFv; not shown: GS-linker-Cys3, C-terminal, kept
